Experimental data published in paper PMC11364227.

Molecular target: SARS-CoV-2 prototype-Beta RBD-dimer PB (two truncated RBDs, 329-537, in tandem) (SARS-CoV-2 (prototype) | SARS-CoV-2 (Beta variant)) (UniProt P0DTC2)
Test: SPR

Going from C022 to CR3022, the Kd rises from 5.1 nM to 293 nM (57-fold).

First: S2H97
Second: S2K146
The Kd of the first is 2.5-fold lower: 1.6 nM for the first, 4 nM for the second.

S309 and SA55 are within 1.5-fold of each other in Kd: 7.6 nM for the first, 6.6 nM for the second.

XGv347 was tested, and the Kd was 0.2 nM.
